The source of these data is article PMC10591846 (Cell reports, 2023).

Where no end group is shown, it is not given here. The star is where a group is joined. Biotin = O=C1N[C@H]2[C@H](CS[C@H]2CCCCC(=O)*)N1

Test in all cases: AlphaScreen or HTRF
(In general: In Alpha technology, singlet oxygen from a donor bead excites a nearby acceptor bead.)

The target in one experiment is T1, GST-Pirh2_(1–195) (human, UniProt Q96PM5 1-195).
T1 sequence: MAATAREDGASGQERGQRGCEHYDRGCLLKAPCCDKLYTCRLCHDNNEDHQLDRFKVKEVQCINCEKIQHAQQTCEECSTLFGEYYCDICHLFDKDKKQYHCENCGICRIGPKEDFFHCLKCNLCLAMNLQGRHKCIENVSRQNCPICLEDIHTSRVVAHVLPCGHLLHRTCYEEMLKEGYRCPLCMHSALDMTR

In the next experiment the target is T2, GST-Pirh2_(15-195) (human, UniProt Q96PM5 15-195).
T2 sequence: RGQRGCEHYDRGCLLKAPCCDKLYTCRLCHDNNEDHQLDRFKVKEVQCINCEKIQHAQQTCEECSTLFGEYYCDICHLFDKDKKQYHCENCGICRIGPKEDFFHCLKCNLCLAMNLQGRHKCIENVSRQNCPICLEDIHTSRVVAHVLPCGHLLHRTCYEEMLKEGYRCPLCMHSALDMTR

Experiment [1] addresses GST-KLHDC10 (full length) with Elongin B/C (human | , UniProt Q6PID8 1-442; Q15370 1-104; Q15369 1-112).

Chain of GST-KLHDC10 (full length) with Elongin B/C (Q6PID8 whole entry, chain 1 of 2): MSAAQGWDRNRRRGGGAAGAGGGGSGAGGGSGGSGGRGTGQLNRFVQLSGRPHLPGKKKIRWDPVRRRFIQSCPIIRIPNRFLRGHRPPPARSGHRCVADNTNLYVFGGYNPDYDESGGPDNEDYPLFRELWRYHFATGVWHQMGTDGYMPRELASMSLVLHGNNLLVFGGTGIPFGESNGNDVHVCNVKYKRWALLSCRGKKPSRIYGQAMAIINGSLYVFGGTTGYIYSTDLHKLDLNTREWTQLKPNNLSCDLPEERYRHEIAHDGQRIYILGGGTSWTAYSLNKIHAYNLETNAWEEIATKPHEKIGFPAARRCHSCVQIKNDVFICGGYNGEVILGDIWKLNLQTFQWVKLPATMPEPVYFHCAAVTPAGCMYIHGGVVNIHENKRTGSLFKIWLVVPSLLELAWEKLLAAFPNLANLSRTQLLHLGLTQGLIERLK
Chain of GST-KLHDC10 (full length) with Elongin B/C (Q15369 whole entry, chain 3 of 2): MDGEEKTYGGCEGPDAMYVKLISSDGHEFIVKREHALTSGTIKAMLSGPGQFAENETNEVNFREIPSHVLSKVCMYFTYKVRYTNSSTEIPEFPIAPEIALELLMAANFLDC

B1: MDELYKAAAAAA (Ala-tail peptide, non-biotinylated) (peptide)
peptide: MDELYKAAAAAA
Take B1: the IC50 (commonly the concentration at which inhibition is half-maximal) with GST-Pirh2_(1–195) was in the range of 90 to 120 nM; with GST-Pirh2_(15-195), 50 to 120 nM; in experiment [1], 5 to 10 nM.

B2: MDELYKAAAAAA-NH2 (peptide)
peptide: MDELYKAAAAAA-NH2
For the molecule B2, the “fold reduction of affinity against the Ala-tail peptide with free carboxyl” value with GST-Pirh2_(15-195) is ~2000 fold.

B3: MDELAAAAA (peptide)
peptide: MDELAAAAA
In the case of B3, the binding result with GST-Pirh2_(15-195) is on record as “binds”.

B4: MDELYKAAAAA (peptide)
peptide: MDELYKAAAAA
As to B4, the IC50 with GST-Pirh2_(15-195) is ~50 nM.

B5: LYKAAAAA (peptide)
peptide: LYKAAAAA
With B5, in the experiment with GST-Pirh2_(15-195), the binding result is “binds”.

B6: Biotin-MDELYKAAAAAA (peptide)
peptide: Biotin-MDELYKAAAAAA
As for B6, the binding result in experiment [1] is on record as “binds”.

B7: MDELYKLAAAAA (peptide)
peptide: MDELYKLAAAAA
On to B7, for which, in the experiment with GST-Pirh2_(15-195), the concentration for half-maximal inhibition (IC50) is ~60 nM.

B8: MDELYKAAGAAA (peptide)
peptide: MDELYKAAGAAA
B8: in the experiment with GST-Pirh2_(15-195), the “fold reduction of binding against the Ala6 peptide” value was found to be 100 fold.

B9: MDELYKGAAAAA (peptide)
peptide: MDELYKGAAAAA
Consider B9, for which the IC50 in the experiment with GST-Pirh2_(15-195) was ~60 nM.

B10: MDELYKAAALAA (peptide)
peptide: MDELYKAAALAA
For B10, in the experiment with GST-Pirh2_(15-195), the “fold reduction of binding against the Ala6 peptide” value is 3 fold.

B11: MDELYKAAAAAG (peptide)
peptide: MDELYKAAAAAG
Consider B11, for which the IC50 with GST-Pirh2_(15-195) is ~2000 nM.

B12: MDELYKAAAAAD (peptide)
peptide: MDELYKAAAAAD
For the molecule B12, in the experiment with GST-Pirh2_(15-195), the half-maximal inhibitory concentration (IC50) was ~26000 nM.

B13: KAAAAA (peptide)
peptide: KAAAAA
On to B13, for which the binding result with GST-Pirh2_(15-195) is on record as “binds”.

B14: DELYKAAAAA (peptide)
peptide: DELYKAAAAA
As for B14, the binding result with GST-Pirh2_(15-195) is “binds”.

B15: MDELYKAAAA (peptide)
peptide: MDELYKAAAA
For B15, in the experiment with GST-Pirh2_(15-195), the IC50 is ~2000 nM.

B16: ELYKAAAAA (peptide)
peptide: ELYKAAAAA
On to B16, for which, in the experiment with GST-Pirh2_(15-195), the binding result is recorded as “binds”.

B17: YKAAAAA (peptide)
peptide: YKAAAAA
In the case of B17, the binding result with GST-Pirh2_(15-195) is “binds”.
